# Target: SARS-CoV-2 S protein trimer expressed on human A431 cells (SARS-CoV-2, UniProt P0DTC2 14-1273)
# Assay: flow cytometry on A431 cells expressing SARS-CoV-2 S (A431-CoV-2-S)
row,Binder,percent of cells right of the dashed gate line [%]
1,"1B5 VHH-hFc (Fc fusion, also called 1B5-hFc; NCI-CoV-1B5 VHH-hFc fusion protein) DVQLVESGGGSVQAGGSLRLSCTGSRYTYSTYCMGWFRQAPGKEEEAVAIINSGGGEPYYGDSVKGRFTISQDRAKNTVYLQMDGLQPDDTAIYYCVAADSHNSRCYLGRSYVNYWGQGTQVTVSS",99.1
2,"1H6 VHH-hFc (Fc fusion, also called 1H6-hFc; NCI-CoV-1H6 VHH-hFc fusion protein) AVQLVDSGGGSVQAGGSLNLSCVASGTTLRNGCMAWFRQVPGKEREVVAIIIRATSYTDYADSVKGRFTISQDNAKNTVYLQMKSLTPEDTATYYCAATLYRVNCAKREFDKWGQGTQVTVSS",99.5
3,"7A3 VHH-hFc (Fc fusion, also called 7A3-hFc; NCI-CoV-7A3 VHH-hFc fusion protein) QVQLVESGGGSVQPGGSLRLSCVVSGYTSSSRYMGWFRQVPGKGLEWVSGIKRDGTNTYYADSVKGRFTISQDNAKNTVYLQMNSLKPEDTAMYYCAAGSWYNQWGYSMDYWGKGTQVTVSS",99.5
4,"8A2 VHH-hFc (Fc fusion, also called NCI-CoV-8A2 VHH-hFc) AVQLVDSGGGSVQAGGSLRLSCAASGYTYSICTMGWYRQAPGEGLEWVSGINADGSNTHYTDSVKGRFTISRDNAKKTLYLQMNSLKPEDTAIYYCAAHGTYDKYAPCGGFAGTYTYWGQGTQVTVSS",98.7
5,"8A4 VHH-hFc (Fc fusion, also called 8A4-hFc; NCI-CoV-8A4 VHH-hFc fusion protein) EVQLVESGGGLVQPGESLRLSCEASGFTFSSVYMSWVRQAPGKGLEWISTIHPAGGSTYYADSMKDRFTISRDNAKNTLYLQMNSLKSEDTALYYCIIEALSGYRGPGTQVTVSS",99.4
6,"2F7 VHH-hFc (Fc fusion, also called 2F7-hFc; NCI-CoV-2F7 VHH-hFc fusion protein) QVKLEESGGGSVQSGGSLRLSCTVSRDTNTNINRCMGWFRQAPGKGLETVATINRDGTNTYYTDAVKGRFTISQDNVKNTVYLQMNNLTPEDTGTYICNAMGRGSGSRCDNWDPNYWGQGTQVTVSS",99.3

# Reference: patent US20230391852A1 (US Dept. of Health and Human Services, published 2023)
